We go through one molecule from article PMC3528738 (PLoS ONE, 2012).

The target of the test is T1, MPERp (HIV-1 (HXBc2 isolate), C-terminal carboxamide).
T1 construct: also called MPER peptide
Description: cross-linking; peptides (10 µg) in solution incubated with 20 µM BS3 for 1 h at 37°C, TCA precipitation, Tricine SDS-PAGE; detection by Western blot with MAb2F5 or by NBD fluorescence in the gel. As to conditions: both partners purified. (Immunoblotting shows a protein as a band on a membrane.)

Where no end group is shown, it is not given here.

T1 sequence (P03375 656-683): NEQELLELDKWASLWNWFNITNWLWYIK

B1: FPp (peptide)
peptide: AVGIGALFLGFLGAAGSTMGARSKKK-NH2
notes: HIV-1 gp160 (gp41 amino-terminal fusion peptide), HXBc2 isolate, residues 512-534; three lysines added at the C-terminus, not of gp160 (printed as 512-534-KKK); C-terminal KKK is added to the natural stretch; also called FP peptide; fusion peptide; source: synthetic peptide (solid-phase synthesis, Fmoc chemistry; purified by HPLC)
Take B1: the binding result was “binds”.
